Measured values from patent US20230102344A1 (MARENGO THERAPEUTICS, published 2023).

B1: BJM1079 (scFv)
scFv: EIQLLESGGGLVQPGGSLRLSCAVSGFSITTTGYHWNWVRQAPGKGLEWVGYIYSSGSTSYNPSLKSRFTISRDTSKNTFYLQMNSLRAEDTAVYYCARGDWHYFDYWGQGTMVTVSSGGGGSGGGGSGGGGSGGGGSDSVTTQSPLSLPVTLGQPASISCSGEKLSDKYVHWYQQRPGQSPRMLIYENDRRPSGVPDRFSGSNSGNDATLKISRVEAEDVGVYFCQFWDSTNSAVFGGGTKVEIK
notes: only 'BJM0411 Parental'; also called BJM0411 Parental
B2: BKM0138 (scFv)
scFv: EIQLLESGGGLVQPGGSLRLSCAVSGFSITTTGYHWNWVRQAPGKGLEWVGYIYSSGSTSYNPSLKSRFTISRDTSKNTFYLQMNSLRAEDTAVYYCARGDWHYFDYWGQGTMVTVSSGGGGSGGGGSGGGGSGGGGSDSVTTQSPLSLPVTLGQPASISCSGEKLSDKYVHWYQQRPGQSPRMLIYENDRRPSGVPDRFSGSNSGNDATLKISRVEAEDVGVYFCQFWDSTASAVFGGGTKVEIK
notes: also called BJM0411 VL-N95A
B3: BKM0142 (scFv)
scFv: EIQLLESGGGLVQPGGSLRLSCAVSGFSITTTGYHWNWVRQAPGKGLEWVGYIYSSGSTSYAPSLKSRFTISRDTSKNTFYLQMNSLRAEDTAVYYCARGDWHYFDYWGQGTMVTVSSGGGGSGGGGSGGGGSGGGGSDSVTTQSPLSLPVTLGQPASISCSGEKLSDKYVHWYQQRPGQSPRMLIYENDRRPSGVPDRFSGSNSGNDATLKISRVEAEDVGVYFCQFWDSTNSAVFGGGTKVEIK
notes: also called BJM0411 VH-N60A
B4: BKM0144 (scFv)
scFv: EIQLLESGGGLVQPGGSLRLSCAVSGFSITTTGYHWNWVRQAPGKGLEWVGYIYSSGSTSYAPSLKSRFTISRDTSKNTFYLQMNSLRAEDTAVYYCARGDWHYFDYWGQGTMVTVSSGGGGSGGGGSGGGGSGGGGSDSVTTQSPLSLPVTLGQPASISCSGEKLSDKYVHWYQQRPGQSPRMLIYENDRRPSGVPDRFSGSNSGNDATLKISRVEAEDVGVYFCQFWASTASAVFGGGTKVEIK
notes: also called BJM0411 VH-N60A-VL-D92A-N95A
B5: BKM0139 (scFv)
scFv: EIQLLESGGGLVQPGGSLRLSCAVSGFSITTTGYHWNWVRQAPGKGLEWVGYIYSSGSTSYNPSLKSRFTISRDTSKNTFYLQMNSLRAEDTAVYYCARGDWHYFDYWGQGTMVTVSSGGGGSGGGGSGGGGSGGGGSDSVTTQSPLSLPVTLGQPASISCSGEKLSDKYVHWYQQRPGQSPRMLIYENDRRPSGVPDRFSGSNSGNDATLKISRVEAEDVGVYFCQFWASTNSAVFGGGTKVEIK
notes: also called BJM0411 VL-D92A
B6: BJM0898 (antibody, V domains shown)
VH: QVQLVQSGAEVKKPGSSVKVSCKASGTDFKLTYIHWVRQAPGQGLEWMGRIFPGSGNVKYNEKFKGRVTITADTSTSTAYMELSSLRSEDTAVYYCAVSYYSYDVLDYWGQGTTVTVSS
VL: DIQMTQSPSFLSASVGDRVTITCKASQNVDNRVAWYQQKPGKAPKALIYSSSHRYKGVPSRFSGSGSGTEFTLTISSLQPEDFATYFCQQFKSYPLTFGQGTKLEIK
B7: BJM0900 (antibody, V domains shown)
VH: QVQLVQSGAEVKKPGSSVKVSCKASGHDFRLTYIHWVRQAPGQGLEWMGRISAGSGNVKYNEKFKGRVTITADTSTSTAYMELSSLRSEDTAVYYCAVSYYSYDVLDYWGQGTTVTVSS
VL: DIQMTQSPSFLSASVGDRVTITCKASQNVADRVAWYQQKPGKAPKALIYSSSHRYKGVPSRFSGSGSGTEFTLTISSLQPEDFATYFCQQFKSYPLTFGQGTKLEIK
B8: BJM0387 (bispecific antibody, not shown: a dimerising Fc or GST; large carriers)
heavy: QVQLVQSGAEVKKPGSSVKVSCKASGYSFTTYYIHWVRQAPGQGLEWMGWFFPGSGNIKYNEKFKGRVTITADTSTSTAYMELSSLRSEDTAVYYCAGSYYSYDVLDYWGQGTTVTVSSGGGGSGGGGSGGGGSGGGGSDIQMTQSPSFLSASVGDRVTITCKASQNVGINVVWHQQKPGKAPKALIYSSSHRYSGVPSRFSGSGSGTEFTLTISSLQPEDFATYFCQQFKSYPLTFGQGTKLEIKGGGGSQVQLVQSGAEVKKPGSSVKVSCKASGYTFTDYNMHWVRQAPGQGLEWIGYIYPYNGGTGYNQKFKSKATITADESTNTAYMELSSLRSEDTAVYYCARGRPAMDYWGQGTLVTVSS
light: DIQMTQSPSSLSASVGDRVTITCRASESVDNYGISFMNWFQQKPGKAPKLLIYAASNQGSGVPSRFSGSGSGTDFTLTISSLQPDDFATYYCQQSKEVPWTFGQGTKVEIK
notes: also called anti-CD33×TCRvβ antibody BJM0387
B9: BKM0140 (scFv)
scFv: EIQLLESGGGLVQPGGSLRLSCAVSGFSITTTGYHWNWVRQAPGKGLEWVGYIYSSGSTSYNPSLKSRFTISRDTSKNTFYLQMNSLRAEDTAVYYCARGDWHYFDYWGQGTMVTVSSGGGGSGGGGSGGGGSGGGGSSSETTQPPSVSVSPGQTASITCSGEKLSDKYVHWYQQKPGQSPVMVIYENDRRPSGIPERFSGSNSGNTATLTISGTQAMDEADYFCQFWASTNSAVFGGGTQLTVL
notes: also called BJM0407 VL-D92A
B10: BKM0143 (scFv)
scFv: EIQLLESGGGLVQPGGSLRLSCAVSGFSITTTGYHWNWVRQAPGKGLEWVGYIYSSGSTSYAPSLKSRFTISRDTSKNTFYLQMNSLRAEDTAVYYCARGDWHYFDYWGQGTMVTVSSGGGGSGGGGSGGGGSGGGGSSSETTQPPSVSVSPGQTASITCSGEKLSDKYVHWYQQKPGQSPVMVIYENDRRPSGIPERFSGSNSGNTATLTISGTQAMDEADYFCQFWDSTNSAVFGGGTQLTVL
notes: also called BJM0407 VH-N60A
B11: BKM0141 (scFv)
scFv: EIQLLESGGGLVQPGGSLRLSCAVSGFSITTTGYHWNWVRQAPGKGLEWVGYIYSSGSTSYNPSLKSRFTISRDTSKNTFYLQMNSLRAEDTAVYYCARGDWHYFDYWGQGTMVTVSSGGGGSGGGGSGGGGSGGGGSSSETTQPPSVSVSPGQTASITCSGEKLSDKYVHWYQQKPGQSPVMVIYENDRRPSGIPERFSGSNSGNTATLTISGTQAMDEADYFCQFWDSTASAVFGGGTQLTVL
notes: also called BJM0407 VL-N95A
B12: BKM0145 (scFv)
scFv: EIQLLESGGGLVQPGGSLRLSCAVSGFSITTTGYHWNWVRQAPGKGLEWVGYIYSSGSTSYAPSLKSRFTISRDTSKNTFYLQMNSLRAEDTAVYYCARGDWHYFDYWGQGTMVTVSSGGGGSGGGGSGGGGSGGGGSSSETTQPPSVSVSPGQTASITCSGEKLSDKYVHWYQQKPGQSPVMVIYENDRRPSGIPERFSGSNSGNTATLTISGTQAMDEADYFCQFWASTASAVFGGGTQLTVL
notes: also called BJM0407 VH-N60A-VL-D92A-N95A
B13: BJM1078 (antibody, V domains shown)
VH: EIQLLESGGGLVQPGGSLRLSCAVSGFSITTTGYHWNWVRQAPGKGLEWVGYIYSSGSTSYNPSLKSRFTISRDTSKNTFYLQMNSLRAEDTAVYYCARGDWHYFDYWGQGTMVTVSS
VL: SSETTQPPSVSVSPGQTASITCSGEKLSDKYVHWYQQKPGQSPVMVIYENDRRPSGIPERFSGSNSGNTATLTISGTQAMDEADYFCQFWDSTNSAVFGGGTQLTVL
notes: only 'BJM0407 Parental'; also called BJM0407 Parental

Assays:
Human NKp30 (BKM0179) = molecular target: T1, Human NKp30 (BKM0179) (human, UniProt O14931 19-135, limits assumed); experiment: SPR (Biacore T200): human NKp30 BKM0179 captured via anti-mouse Fc on CM5, antibody as analyte, 1:1 fit
T1 sequence (looked up): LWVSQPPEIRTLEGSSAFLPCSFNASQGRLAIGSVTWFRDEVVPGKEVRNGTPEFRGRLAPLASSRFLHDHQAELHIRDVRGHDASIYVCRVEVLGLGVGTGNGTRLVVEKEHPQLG

human TCRvβ (BIM0444) = molecular target: T2, human TCRvβ (BIM0444) (human); experiment: SPR (Biacore): antibody captured via anti-human Fc on CM5, BIM0444 as analyte, 1:1 fit
T2 construct: also called human TCRβvP; human TCRvβ 6-5

[1] = molecular target: T3, CD33 expressed on cells (MOLM-13, MV411, HL60) (human, UniProt P20138 18-364); experiment: binding to CD33+ MOLM-13 cells (cell binding assay)
T3 construct: whole, on cells; also called CD33+ MOLM-13 cells; CD33-expressing MOLM-13 cells
T3 sequence (P20138 18-364): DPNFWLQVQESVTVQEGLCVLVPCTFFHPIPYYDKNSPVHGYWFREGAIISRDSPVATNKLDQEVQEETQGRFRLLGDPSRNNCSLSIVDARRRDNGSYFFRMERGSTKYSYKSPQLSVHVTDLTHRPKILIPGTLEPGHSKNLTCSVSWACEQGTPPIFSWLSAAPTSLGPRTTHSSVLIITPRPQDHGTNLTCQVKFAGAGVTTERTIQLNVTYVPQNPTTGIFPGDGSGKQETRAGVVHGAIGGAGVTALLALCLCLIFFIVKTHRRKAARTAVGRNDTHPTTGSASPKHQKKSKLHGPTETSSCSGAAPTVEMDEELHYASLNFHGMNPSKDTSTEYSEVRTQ

T2 sequence (A0A0K0K1A5 22-114): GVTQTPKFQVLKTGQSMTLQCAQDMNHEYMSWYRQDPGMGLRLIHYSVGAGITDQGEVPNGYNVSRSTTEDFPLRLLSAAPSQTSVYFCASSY

| Binder | Kd (Human NKp30 (BKM0179)) [nM] | also measured |
| --- | --- | --- |
| B1 | 1.26 |  |
| B2 | 3.2 |  |
| B3 | 1.28 |  |
| B4 | 6.4 |  |
| B5 | 3.2 |  |
| B6 |  | Kd (human TCRvβ (BIM0444)): 11 nM |
| B7 |  | Kd (human TCRvβ (BIM0444)): 2.7 nM |
| B8 |  | binding result [1]: binds |
| B9 | 3.3 |  |
| B10 | 1.45 |  |
| B11 | 3 |  |
| B12 | 4.2 |  |
| B13 | 1.48 |  |
